From patent US20250066500A1 come the findings set out here.

Common to all, as to test: cell-based or functional assay
The target of assay [1] is IL-2Rβ and common γ chain on 32Dβ cells.
Assay [2] addresses IL-2Rα, IL-2Rβ and common γ chain on CTLL-2 cells.
Another assay concerns the target TGFβ1 (R&D systems) (UniProt P01137).
Chain of UniProt P01137 (P01137 279-390 limits assumed): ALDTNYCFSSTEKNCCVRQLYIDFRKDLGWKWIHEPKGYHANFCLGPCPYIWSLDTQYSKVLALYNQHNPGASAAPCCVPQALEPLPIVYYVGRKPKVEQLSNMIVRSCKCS

Regarding “recombinant IL2 (Proleukin) (from UniProt P60568 22-153) (ligand)”, the EC50 of 32Dβ cell proliferation (WST1, absorbance at 450 nM) in assay [1] amounted to 0.0655 nM. Moreover, the EC50 of CTLL-2 cell proliferation (WST1, absorbance at 450 nM) in assay [2] stood at 0.253 nM.
“recombinant IL-2 (from UniProt P60568 21-153) (ligand)”: in assay [1], the EC50 of 32Dβ cell proliferation (WST1, absorbance at 450 nM) worked out at 0.14 nM. Further, the EC50 of CTLL-2 cell proliferation (WST1, absorbance at 450 nM) in assay [2] came out at 0.548 nM.
With TGFR-Fc (R&D Systems) (Fc fusion), in the assay with TGFβ1 (R&D systems), the IC50 of inhibition of TGFβ1 activity in HEK-Blue TGFβ reporter cells (QUANTI-Blue OD at 620-655 nM) turned out to be 0.461 nM.
Turning to “recombinant IL-15 (from UniProt P40933 49-162) (ligand)”, the EC50 of 32Dβ cell proliferation (WST1, absorbance at 450 nM) in assay [1] came to 0.0106 nM.
